Measurements from PMC8067709, “Crystal Structure of the Epo1-Bem3 Complex for Bud Growth” (International Journal of Molecular Sciences, 2021).
Substitutions are numbered along the chain they refer to. In names and notes the source's numbering stands.

B1: Bem3^CC1 (1-99) with 6xHis tag, isolated protein, P32873 R84A (protein)
chain: MTDNLTTTHGGSTTLELLAQYNDHRSKKDKSIEHIEKGTCSGKERNPSYDEIFTENIKLKLQVQEYETEIESLEKVIDMLQKNAEASLEVVLEQVQNDS
B2: Bem3^CC1 (1-99) with 6xHis tag, isolated protein (domain or fragment, Saccharomyces cerevisiae, UniProt P32873 1-99, looked up)
chain: B1 chain with A84R
notes: Bem3, Saccharomyces cerevisiae, residues 1-99 (CC1 domain); Dimer in solution by MALS; theoretical molecular mass printed as 11.39 kDa; also called N-His-unlabeled Bem3^CC1; wild-type (wt) Bem3^CC1; source: pET-22b construct, purified (Hitrap Q ion-exchange); not shown: 6xHis, N-terminal, kept
B3: Epo1^CC2-CC4 (746-943) with 6xHis tag, isolated protein (domain or fragment)
chain: GSPSKTKSAPVSYDKDGMNASEEDFSFDNTLAKPYEPLYARRGDITSAGSTSGEDSSQPKMITISGEQLNLITENKELMNELTLVSTELAESIKRETELEERIRLYETNNSAPSFDDSSSVSFSDFEKELRKKSSKIVQLIQQLNDERLKRFIAEEQLLLQENGTKPSSMELVGRIENLNKLIDERDSEIEMLKGRLQ
B4: Epo1-CC-K881A (domain or fragment)
chain: B3 chain with K136A
B5: Epo1CC2-CC4-Q888A (protein)
chain: B3 chain with Q143A
modifications: Entity 1 of 6LP3 is Epo1 (YMR124W) 746-943, so entity position = residue number - 745 (Q888 = 143, K881 = 136, R876 = 131). Q888A is taken from the figure label; the text says Q884A and the legend Q88A. Epo1 CC2-CC4 alone is a homodimer in solution; one chain is given.

Legend:
[1] = target: Scs2-Msp (1-128), N-His (Saccharomyces cerevisiae) (UniProt P40075); experiment: MST; Monolith NT.115; RED-tris-NTA labeled N-His Scs2-Msp (100 nM) with a serial dilution of Epo1, Bem3 or EB complex from 2 mM; 20 mM Tris-HCl pH 8.0, 150 mM NaCl, 4 mM MgCl2, 0.05% Tween 20
[2] = target: T1, Epo1^CC2-CC4 (746-943) with 6xHis tag, isolated protein; experiment: SPR; conditions: chain shown with the change;; parent: 72.65
T1 chain: B3 chain

[3] = target: the molecule itself; experiment: SEC-MALS; Superdex 200 10/300 with DAWN HELEOS II; 100 uL of 2-4 mg/mL protein; 20 mM Tris pH 8.0, 150 mM NaCl, 4 mM MgCl2
[4] = target: Epo1^CC2-CC4 (746-943) with 6xHis tag, isolated protein (Saccharomyces cerevisiae); experiment: as above
[5] = target: T2, Bem3^CC1 (1-99) with 6xHis tag, isolated protein (Saccharomyces cerevisiae, UniProt P32873 1-99); experiment: SPR
T2 chain: B1 chain with A84R

Scs2-Msp (1-128), N-His (Saccharomyces cerevisiae), sequence (P40075 1-128): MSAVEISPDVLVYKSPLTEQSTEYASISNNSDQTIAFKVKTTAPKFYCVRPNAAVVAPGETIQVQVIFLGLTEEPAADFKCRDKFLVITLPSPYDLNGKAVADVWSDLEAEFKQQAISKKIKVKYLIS

| Molecule | Kd [1] [µM] | Kd [5] [µM] | other results |
| --- | --- | --- | --- |
| Epo1^CC2-CC4-Bem3^CC1 complex (from UniProt P32873 1-99) | 120 |  |  |
| B1 |  |  | Kd [2]: 137 µM |
| B2 |  |  | stoichiometry N [3]: 2 |
| B3 | 170 | 72.7 | stoichiometry N [4]: 2 |
| B4 |  | 375 |  |
| B5 |  | 115 |  |
